Measured values reported in publication PMC4073494 (Nature communications, 2014).

Target: purified full-length EED (AlphaScreen) (UniProt O75530 1-441)
Experiment: AlphaScreen or HTRF

Sequence of purified full-length EED (AlphaScreen) (O75530 whole entry): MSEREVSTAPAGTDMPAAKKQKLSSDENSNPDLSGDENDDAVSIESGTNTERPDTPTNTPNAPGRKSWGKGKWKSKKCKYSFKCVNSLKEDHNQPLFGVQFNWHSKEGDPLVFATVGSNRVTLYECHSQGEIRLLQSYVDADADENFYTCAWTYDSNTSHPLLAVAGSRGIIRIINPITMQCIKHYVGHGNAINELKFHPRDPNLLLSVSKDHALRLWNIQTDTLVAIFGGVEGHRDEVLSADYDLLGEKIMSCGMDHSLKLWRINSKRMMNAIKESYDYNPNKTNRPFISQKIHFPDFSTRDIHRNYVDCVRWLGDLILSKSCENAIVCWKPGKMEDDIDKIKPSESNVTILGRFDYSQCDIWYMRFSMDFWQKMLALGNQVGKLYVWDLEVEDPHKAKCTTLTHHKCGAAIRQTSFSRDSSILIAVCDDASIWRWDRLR

B1: unlabeled full-length EZH2 (AlphaScreen) (natural protein)
chain: not shown
Work on B1 yielded an EC50 of 148 nM.
